± gives the uncertainty stated by the source.
B1: Spectrin alpha chain, erythrocytic 1, residues 979 to 1036; numbered along this chain, P02549 (parent)
chain: EQRVMALYDFQARSPREVTMKKGDVLTLLSSINKDWWKVEAADHQGIVPAVYVRRLAH

Variants of: B1
Assay: abundance fitness (aPCA) (normalised: wild type 0, dead -1); higher = more abundant; growth selection in yeast, the domain comes from the species named
Details: Homo sapiens

Row | Variant | abundance fitness
1 | EQRVMALYDFQARSPREVTMKKGDVLTLLSSINKDWWKWEAADHQGIVPAVYVRRLAH [V39W] | -0.564 ± 0.2
2 | EQRVMALYDFQARSPREVTMKKGDVLTLLSSINKDWWKVAAADHQGIVPAVYVRRLAH [E40A] | 0.243 ± 0.058
3 | EQRVMALYDFQARSPREVTMKKGDVLTLLSSINKDWWKVDAADHQGIVPAVYVRRLAH [E40D] | -0.388 ± 0.094
4 | EQRVMALYDFQARSPREVTMKKGDVLTLLSSINKDWWKVGAADHQGIVPAVYVRRLAH [E40G] | -0.217 ± 0.14
5 | EQRVMALYDFQARSPREVTMKKGDVLTLLSSINKDWWKVKAADHQGIVPAVYVRRLAH [E40K] | 0.29 ± 0.21
6 | EQRVMALYDFQARSPREVTMKKGDVLTLLSSINKDWWKVLAADHQGIVPAVYVRRLAH [E40L] | -0.652 ± 0.12
7 | EQRVMALYDFQARSPREVTMKKGDVLTLLSSINKDWWKVMAADHQGIVPAVYVRRLAH [E40M] | -0.125 ± 0.26
8 | EQRVMALYDFQARSPREVTMKKGDVLTLLSSINKDWWKVPAADHQGIVPAVYVRRLAH [E40P] | -0.744 ± 0.5
9 | EQRVMALYDFQARSPREVTMKKGDVLTLLSSINKDWWKVQAADHQGIVPAVYVRRLAH [E40Q] | 0.188 ± 0.17
10 | EQRVMALYDFQARSPREVTMKKGDVLTLLSSINKDWWKVRAADHQGIVPAVYVRRLAH [E40R] | 0.217 ± 0.086
11 | EQRVMALYDFQARSPREVTMKKGDVLTLLSSINKDWWKVSAADHQGIVPAVYVRRLAH [E40S] | -0.187 ± 0.11
12 | EQRVMALYDFQARSPREVTMKKGDVLTLLSSINKDWWKVTAADHQGIVPAVYVRRLAH [E40T] | -0.222 ± 0.19
13 | EQRVMALYDFQARSPREVTMKKGDVLTLLSSINKDWWKVVAADHQGIVPAVYVRRLAH [E40V] | -0.573 ± 0.21
14 | EQRVMALYDFQARSPREVTMKKGDVLTLLSSINKDWWKVECADHQGIVPAVYVRRLAH [A41C] | 0.001 ± 0.086
15 | EQRVMALYDFQARSPREVTMKKGDVLTLLSSINKDWWKVEEADHQGIVPAVYVRRLAH [A41E] | -0.851 ± 0.49
16 | EQRVMALYDFQARSPREVTMKKGDVLTLLSSINKDWWKVEGADHQGIVPAVYVRRLAH [A41G] | 0.154 ± 0.08
17 | EQRVMALYDFQARSPREVTMKKGDVLTLLSSINKDWWKVEIADHQGIVPAVYVRRLAH [A41I] | -0.482 ± 0.35
18 | EQRVMALYDFQARSPREVTMKKGDVLTLLSSINKDWWKVEKADHQGIVPAVYVRRLAH [A41K] | 0.033 ± 0.21
19 | EQRVMALYDFQARSPREVTMKKGDVLTLLSSINKDWWKVELADHQGIVPAVYVRRLAH [A41L] | -0.208 ± 0.16
20 | EQRVMALYDFQARSPREVTMKKGDVLTLLSSINKDWWKVENADHQGIVPAVYVRRLAH [A41N] | -0.024 ± 0.23
21 | EQRVMALYDFQARSPREVTMKKGDVLTLLSSINKDWWKVEQADHQGIVPAVYVRRLAH [A41Q] | -0.287 ± 0.36
22 | EQRVMALYDFQARSPREVTMKKGDVLTLLSSINKDWWKVERADHQGIVPAVYVRRLAH [A41R] | 0.049 ± 0.092
23 | EQRVMALYDFQARSPREVTMKKGDVLTLLSSINKDWWKVESADHQGIVPAVYVRRLAH [A41S] | 0.232 ± 0.12

Row | Variant | abundance fitness
24 | EQRVMALYDFQARSPREVTMKKGDVLTLLSSINKDWWKVETADHQGIVPAVYVRRLAH [A41T] | 0.043 ± 0.15
25 | EQRVMALYDFQARSPREVTMKKGDVLTLLSSINKDWWKVEVADHQGIVPAVYVRRLAH [A41V] | -0.633 ± 0.33
26 | EQRVMALYDFQARSPREVTMKKGDVLTLLSSINKDWWKVEYADHQGIVPAVYVRRLAH [A41Y] | -0.448 ± 0.45
27 | EQRVMALYDFQARSPREVTMKKGDVLTLLSSINKDWWKVEACDHQGIVPAVYVRRLAH [A42C] | -0.197 ± 0.24
28 | EQRVMALYDFQARSPREVTMKKGDVLTLLSSINKDWWKVEAEDHQGIVPAVYVRRLAH [A42E] | -0.089 ± 0.25
29 | EQRVMALYDFQARSPREVTMKKGDVLTLLSSINKDWWKVEAFDHQGIVPAVYVRRLAH [A42F] | -0.002 ± 0.4
30 | EQRVMALYDFQARSPREVTMKKGDVLTLLSSINKDWWKVEAGDHQGIVPAVYVRRLAH [A42G] | 0.455 ± 0.059
31 | EQRVMALYDFQARSPREVTMKKGDVLTLLSSINKDWWKVEAHDHQGIVPAVYVRRLAH [A42H] | -0.031 ± 0.33
32 | EQRVMALYDFQARSPREVTMKKGDVLTLLSSINKDWWKVEALDHQGIVPAVYVRRLAH [A42L] | 0.178 ± 0.16
33 | EQRVMALYDFQARSPREVTMKKGDVLTLLSSINKDWWKVEANDHQGIVPAVYVRRLAH [A42N] | 0.315 ± 0.2
34 | EQRVMALYDFQARSPREVTMKKGDVLTLLSSINKDWWKVEAPDHQGIVPAVYVRRLAH [A42P] | -0.223 ± 0.36
35 | EQRVMALYDFQARSPREVTMKKGDVLTLLSSINKDWWKVEAQDHQGIVPAVYVRRLAH [A42Q] | -0.021 ± 0.077
36 | EQRVMALYDFQARSPREVTMKKGDVLTLLSSINKDWWKVEARDHQGIVPAVYVRRLAH [A42R] | -0.243 ± 0.16
37 | EQRVMALYDFQARSPREVTMKKGDVLTLLSSINKDWWKVEASDHQGIVPAVYVRRLAH [A42S] | -0.133 ± 0.25
38 | EQRVMALYDFQARSPREVTMKKGDVLTLLSSINKDWWKVEATDHQGIVPAVYVRRLAH [A42T] | -0.503 ± 0.24
39 | EQRVMALYDFQARSPREVTMKKGDVLTLLSSINKDWWKVEAAAHQGIVPAVYVRRLAH [D43A] | -0.314 ± 0.21
40 | EQRVMALYDFQARSPREVTMKKGDVLTLLSSINKDWWKVEAAGHQGIVPAVYVRRLAH [D43G] | 0.567 ± 0.076
41 | EQRVMALYDFQARSPREVTMKKGDVLTLLSSINKDWWKVEAAHHQGIVPAVYVRRLAH [D43H] | 0.129 ± 0.26
42 | EQRVMALYDFQARSPREVTMKKGDVLTLLSSINKDWWKVEAAIHQGIVPAVYVRRLAH [D43I] | -0.387 ± 0.19
43 | EQRVMALYDFQARSPREVTMKKGDVLTLLSSINKDWWKVEAALHQGIVPAVYVRRLAH [D43L] | -0.876 ± 0.36
44 | EQRVMALYDFQARSPREVTMKKGDVLTLLSSINKDWWKVEAANHQGIVPAVYVRRLAH [D43N] | -0.105 ± 0.31
45 | EQRVMALYDFQARSPREVTMKKGDVLTLLSSINKDWWKVEAAPHQGIVPAVYVRRLAH [D43P] | -0.552 ± 0.38

— the Human Domainome abundance scans (Beltran et al. 2025)
